From patent publication US20230287348A1 come the findings set out here.

For test [1], the target named is CD19 antigen on ALL cells (REH cell line, primary ALL blasts) (human) (UniProt P15391). In words: cell-based or functional assay.
Test [2] concerns the target CD123 antigen on AML cells (THP-1 cell line, primary AML blasts) (human) (UniProt P26951). Put plainly: cell-based or functional assay.
Chain of UniProt P26951 (P26951 19-378): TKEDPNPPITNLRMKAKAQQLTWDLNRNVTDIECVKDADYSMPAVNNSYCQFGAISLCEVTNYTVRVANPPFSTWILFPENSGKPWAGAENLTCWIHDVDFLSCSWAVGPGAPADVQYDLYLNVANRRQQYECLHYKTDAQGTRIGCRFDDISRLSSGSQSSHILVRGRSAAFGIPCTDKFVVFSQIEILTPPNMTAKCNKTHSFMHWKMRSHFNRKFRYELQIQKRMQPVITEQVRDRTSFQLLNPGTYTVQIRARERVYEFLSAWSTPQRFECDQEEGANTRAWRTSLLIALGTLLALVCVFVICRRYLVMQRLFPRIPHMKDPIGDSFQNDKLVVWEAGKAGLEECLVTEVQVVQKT

Chain of UniProt P15391 (P15391 20-556): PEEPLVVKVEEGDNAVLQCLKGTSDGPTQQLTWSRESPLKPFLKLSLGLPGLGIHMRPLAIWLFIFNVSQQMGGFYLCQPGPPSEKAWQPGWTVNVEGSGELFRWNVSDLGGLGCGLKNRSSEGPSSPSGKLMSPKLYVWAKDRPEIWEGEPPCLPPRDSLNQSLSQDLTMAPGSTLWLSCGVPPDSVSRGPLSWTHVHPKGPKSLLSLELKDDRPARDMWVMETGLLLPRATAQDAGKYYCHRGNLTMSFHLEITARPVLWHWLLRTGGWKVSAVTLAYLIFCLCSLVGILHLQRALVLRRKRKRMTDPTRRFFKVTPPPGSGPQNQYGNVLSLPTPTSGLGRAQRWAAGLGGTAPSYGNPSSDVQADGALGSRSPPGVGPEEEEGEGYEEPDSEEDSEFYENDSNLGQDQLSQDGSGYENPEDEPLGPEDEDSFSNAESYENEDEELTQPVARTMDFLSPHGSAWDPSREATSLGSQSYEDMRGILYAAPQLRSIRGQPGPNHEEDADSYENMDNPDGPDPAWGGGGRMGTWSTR

In test [1], “CD19·CAR (anti-CD19 chimeric antigen receptor: VL and VH of clone FMC63 in frame with CH2CH3-CD28-OX40-ζ), expressed on CIK cells (from UniProt P10747 153-220; P43489 242-277; P20963 52-163)” registered a lysis of ALL primary blasts by CD19·CAR+ CIK cell populations (cytotoxic assay) of 56.8% and a lysis of REH ALL cell line by CD19·CAR+ CIK cell populations (cytotoxic assay) of 80%.

Turning to “CD123·CAR (anti-CD123 chimeric antigen receptor: scFv from mAb 7G3 in frame with CH2CH3-CD28-OX40-ζ), expressed on CIK cells (from UniProt P10747 153-220; P43489 242-277; P20963 52-163)”, in test [2], the lysis of AML primary blasts by CD123·CAR+ CIK cell populations (cytotoxic assay) was found to be 60% and the lysis of THP-1 AML cell line by CD123·CAR+ CIK cell populations (cytotoxic assay) stood at 85%.
